# From IntAct's records for PubMed 29892012
# B1: Coiled-coil alpha-helical rod protein 1 (Homo sapiens), Q8TD31 (parent)
# chain: MFPPSGSTGLIPPSHFQARPLSTLPRMAPTWLSDIPLVQPPGHQDVSERRLDTQRPQVTMWERDVSSDRQEPGRRGRSWGLEGSQALSQQAEVIVRQLQELRRLEEEVRLLRETSLQQKMRLEAQAMELEALARAEKAGRAEAEGLRAALAGAEVVRKNLEEGSQRELEEVQRLHQEQLSSLTQAHEEALSSLTSKAEGLEKSLSSLETRRAGEAKELAEAQREAELLRKQLSKTQEDLEAQVTLVENLRKYVGEQVPSEVHSQTWELERQKLLETMQHLQEDRDSLHATAELLQVRVQSLTHILALQEEELTRKVQPSDSLEPEFTRKCQSLLNRWREKVFALMVQLKAQELEHSDSVKQLKGQVASLQEKVTSQSQEQAILQRSLQDKAAEVEVERMGAKGLQLELSRAQEARRRWQQQTASAEEQLRLVVNAVSSSQIWLETTMAKVEGAAAQLPSLNNRLSYAVRKVHTIRGLIARKLALAQLRQESCPLPPPVTDVSLELQQLREERNRLDAELQLSARLIQQEVGRAREQGEAERQQLSKVAQQLEQELQQTQESLASLGLQLEVARQGQQESTEEAASLRQELTQQQELYGQALQEKVAEVETRLREQLSDTERRLNEARREHAKAVVSLRQIQRRAAQEKERSQELRRLQEEARKEEGQRLARRLQELERDKNLMLATLQQEGLLSRYKQQRLLTVLPSLLDKKKSVVSSPRPPECSASAPVAAAVPTRESIKGSLSVLLDDLQDLSEAISKEEAVCQGDNLDRCSSSNPQMSS
# partner: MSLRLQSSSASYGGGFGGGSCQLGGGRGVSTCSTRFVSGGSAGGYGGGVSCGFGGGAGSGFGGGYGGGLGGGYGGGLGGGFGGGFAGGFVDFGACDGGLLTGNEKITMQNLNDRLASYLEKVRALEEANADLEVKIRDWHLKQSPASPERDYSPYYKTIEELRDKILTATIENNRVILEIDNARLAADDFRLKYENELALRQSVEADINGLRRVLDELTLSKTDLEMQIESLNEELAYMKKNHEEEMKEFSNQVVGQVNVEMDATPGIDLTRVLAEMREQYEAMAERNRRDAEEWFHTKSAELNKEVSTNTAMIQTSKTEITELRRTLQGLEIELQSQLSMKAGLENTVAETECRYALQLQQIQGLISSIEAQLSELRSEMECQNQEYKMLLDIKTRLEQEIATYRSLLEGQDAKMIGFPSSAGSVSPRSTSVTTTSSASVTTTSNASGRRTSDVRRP
# B2: Rho guanine nucleotide exchange factor 3 (Homo sapiens), Q9NR81 (parent)
# chain: MVAKDYPFYLTVKRANCSLELPPASGPAKDAEEPSNKRVKPLSRVTSLANLIPPVKATPLKRFSQTLQRSISFRSESRPDILAPRPWSRNAAPSSTKRRDSKLWSETFDVCVNQMLTSKEIKRQEAIFELSQGEEDLIEDLKLAKKAYHDPMLKLSIMTEQELNQIFGTLDSLIPLHEELLSQLRDVRKPDGSTEHVGPILVGWLPCLSSYDSYCSNQVAAKALLDHKKQDHRVQDFLQRCLESPFSRKLDLWNFLDIPRSRLVKYPLLLREILRHTPNDNPDQQHLEEAINIIQGIVAEINTKTGESECRYYKERLLYLEEGQKDSLIDSSRVLCCHGELKNNRGVKLHVFLFQEVLVITRAVTHNEQLCYQLYRQPIPVKDLLLEDLQDGEVRLGGSLRGAFSNNERIKNFFRVSFKNGSQSQTHSLQANDTFNKQQWLNCIRQAKETVLCAAGQAGVLDSEGSFLNPTTGSRELQGETKLEQMDQSDSESDCSMDTSEVSLDCERMEQTDSSCGNSRHGESNV
# B3: Cilium assembly protein DZIP1L (Homo sapiens), Q8IYY4 (parent)
# chain: MQSPAATAEGLSGPLFGAYTFPTFKFQPRHDSMDWRRISTLDVDRVARELDVATLQENIAGITFCNLDREVCSRCGQPVDPALLKVLRLAQLIIEYLLHCQDCLSASVAQLEARLQTSLGQQQRGQQELGRQADELKGVREESRRRRKMISTLQQLLMQTGTHSYHTCHLCDKTFMNATFLRGHIQRRHAGVAEGGKQKKQEQPVEEVLEELRAKLKWTQGELEAQREAERQRQLQEAELIHQREIEAKKEFDKWKEQEWTKLYGEIDKLKKLFWDEFKNVAKQNSTLEEKLRALQSHSVMESKLGSLRDEESEEWLRQARELQALREKTEIQKTEWKRKVKELHEEHMAEKKELQEENQRLQASLSQDQKKAAAQSQCQISTLRAQLQEQARIIASQEEMIQSLSLRKVEGIHKVPKAVDTEEDSPEEEMEDSQDEQHKVLAALRRNPTLLKHFRPILEDTLEEKLESMGIRKDAKGISIQTLRHLESLLRVQREQKARKFSEFLSLRGKLVKEVTSRAKERQENGAVVSQPDGQPSVKSQQSTLVTREAQPKTRTLQVALPSTPAEPPPPTRQSHGSHGSSLTQVSAPAPRPGLHGPSSTPPSSGPGMSTPPFSSEEDSEGDRVQRVSLQPPKVPSRMVPRPKDDWDWSDTETSEENAQPPGQGSGTLVQSMVKNLEKQLEAPAKKPAGGVSLFFMPNAGPQRAATPGRKPQLSEDESDLEISSLEDLPLDLDQREKPKPLSRSKLPEKFGTGPQSSGQPRVPAW
# B4: Isoform 2 of Synaptoporin (Homo sapiens), Q8TBG9-2 (parent)
# chain: MDPVSQLASAGTFRVLKEPLAFLRALELLFAIFAFATCGGYSGGLRLSVDCVNKTESNLSIDIAFAYPFRLHQVTFEVPTCEGKERQKLALIGDSSSSAEFFVTVAVFAFLYSLAATVVYIFFQNKYRENNRGPLIDFIVTVVFSFLWLVGSSAWAKGLSDVKVATDPKEVLLLMSACKQPSNKCMAIHSPVMSSLNTSVVFGFLNFILWAGNIWFVFKETGWHSSGQRYLSDPMEKHSSSYNQGGYNQDSYGSSSGYSQQASLGPTSDEFGQQPTGPTSFTNQI
# partner: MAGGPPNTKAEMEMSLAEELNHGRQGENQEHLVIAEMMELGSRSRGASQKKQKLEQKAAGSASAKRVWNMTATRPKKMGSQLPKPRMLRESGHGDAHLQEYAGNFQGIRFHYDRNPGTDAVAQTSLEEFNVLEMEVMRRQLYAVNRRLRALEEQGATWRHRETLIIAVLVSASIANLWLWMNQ
# Variants of: B1
# Settings: with KRT13, P13646
row,Variant,effect of a mutation on the interaction
1,W337R,disrupting interaction strength

# Variants of: B2
# Settings: with tri23_human TRIM23, P36406
# Sequence of tri23_human TRIM23, P36406 (P36406 whole entry): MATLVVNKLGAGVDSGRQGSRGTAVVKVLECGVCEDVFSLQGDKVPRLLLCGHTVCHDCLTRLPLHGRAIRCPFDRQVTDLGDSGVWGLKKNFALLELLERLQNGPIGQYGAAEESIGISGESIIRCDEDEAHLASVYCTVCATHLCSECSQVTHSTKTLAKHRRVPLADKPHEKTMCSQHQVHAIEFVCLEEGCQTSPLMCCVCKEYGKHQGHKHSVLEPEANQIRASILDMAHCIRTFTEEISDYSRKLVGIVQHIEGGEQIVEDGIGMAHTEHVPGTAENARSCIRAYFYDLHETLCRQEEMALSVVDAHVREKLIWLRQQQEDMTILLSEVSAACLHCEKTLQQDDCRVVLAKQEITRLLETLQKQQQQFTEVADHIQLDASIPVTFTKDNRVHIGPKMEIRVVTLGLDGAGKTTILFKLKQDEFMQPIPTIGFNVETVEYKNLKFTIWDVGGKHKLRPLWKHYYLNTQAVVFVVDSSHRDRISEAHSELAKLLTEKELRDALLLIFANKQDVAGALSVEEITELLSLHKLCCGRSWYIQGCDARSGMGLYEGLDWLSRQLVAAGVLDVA
row,Variant,effect of a mutation on the interaction
1,P34S,with no effect

# Variants of: B3
# Settings: with cep76_human CEP76, Q8TAP6
# Sequence of cep76_human CEP76, Q8TAP6 (Q8TAP6 whole entry): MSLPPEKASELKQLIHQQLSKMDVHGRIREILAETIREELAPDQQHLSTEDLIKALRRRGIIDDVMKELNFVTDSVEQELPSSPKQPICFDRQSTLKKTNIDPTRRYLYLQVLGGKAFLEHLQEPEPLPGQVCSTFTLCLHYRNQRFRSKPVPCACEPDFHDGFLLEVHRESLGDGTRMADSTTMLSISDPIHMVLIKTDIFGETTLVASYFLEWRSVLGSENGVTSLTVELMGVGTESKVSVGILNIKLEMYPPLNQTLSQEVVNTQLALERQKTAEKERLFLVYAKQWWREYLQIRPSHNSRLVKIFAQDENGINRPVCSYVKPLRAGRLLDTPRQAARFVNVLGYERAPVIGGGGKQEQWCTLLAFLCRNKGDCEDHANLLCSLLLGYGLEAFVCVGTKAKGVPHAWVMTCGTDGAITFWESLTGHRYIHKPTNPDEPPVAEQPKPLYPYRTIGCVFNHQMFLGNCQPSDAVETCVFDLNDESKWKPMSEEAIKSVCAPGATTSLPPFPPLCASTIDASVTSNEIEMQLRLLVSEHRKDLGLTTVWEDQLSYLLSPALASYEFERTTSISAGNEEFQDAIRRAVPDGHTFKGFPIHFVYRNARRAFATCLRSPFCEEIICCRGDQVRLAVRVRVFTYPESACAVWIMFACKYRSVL
row,Variant,effect of a mutation on the interaction
1,R643W,with no effect

# Variants of: B4
# Settings: with fate1_human FATE1, Q969F0
row,Variant,effect of a mutation on the interaction
1,A115P,with no effect
